Test [1] concerns C57Bl/6J mice. In words: Gastrocnemius and soleus muscle weights. The test is classed as in vivo, mouse. The conditions noted are these: age 110 weeks; vs IgG control. The protocol:
From age 55 weeks (human equivalent of ˜45 years old (i.e. middle age)) to age 110 weeks (human equivalent of ˜75 years old), mice were administered with 40 mg/kg of either X203 or isotype-matched control IgG via intra-peritoneal injection every 3 weeks.
Mice also underwent body-composition assessment via echo MRI both at baseline (age 55 weeks) and at 108-109 weeks. This enabled calculation of the change in body fat mass and lean (muscle) mass in the X203 and IgG control treatment groups. Gastrocnemius and soleus muscles were also harvested from the mice at age 110 weeks and their weights were recorded. Data were analysed by 2-way ANOVA.

Test [2] relates to C57Bl/6J mice. In words: Renal function: blood urea nitrogen (BUN) and creatinine. Format: in vivo, mouse. As to the method:
C57Bl/6J mice are randomised to receive either X203 or IgG control antibody at a dose of 40 mg/kg via IP injection every 3 weeks from age 55 weeks to age 110 weeks, and renal function was evaluated by analysis of serum levels of blood urea nitrogen (BUN) and creatinine using the Urea Assay Kit (ab83362, Abcam) and Creatinine Assay Kit (ab65340, Abcam) in accordance with the manufacturer's instructions.
Levels of BUN and serum creatinine was also analysed in 12 week-old male and female C57Bl/6J mice, in order to determine baseline levels. Data were analysed by 2-way ANOVA.

Test [3] deals with C57Bl/6J mice. In words: Metabolic function: serum/liver triglyceride, serum cholesterol, serum hydroxybutyrate. Format: in vivo, mouse. As to the method: C57Bl/6J mice were randomised to receive either X203 or IgG control antibody at a dose of 40 mg/kg via IP injection every 3 weeks from age 55 weeks to age 110 weeks, and serum triglyceride, liver triglyceride, serum cholesterol and serum p-hydroxybutyrate levels were measured using Triglyceride Assay Kit (ab65336, Abcam), Cholesterol Assay Kit (ab65390, Abcam), and Beta-Hydroxybutyrate Colorimetric Assay Kit (700190; Cayman chemicals), in accordance with the manufacturer's instructions. Levels of serum triglyceride, liver triglyceride, serum cholesterol and serum p-hydroxybutyrate were also analysed in 12 week-old male and female C57Bl/6J mice, in order to determine baseline levels. Data were analysed by 2-way ANOVA.

For test [4], the system named is Primary human hepatocytes. In words: Hepatocytes stimulated with IL-11, BSA or palmitate with X203, X209 or IgG, western blot. Conditions: 24 hours; antibody 2 μg/ml; IL11 10 ng/ml or palmitate 0.5 mM. Format: cell-based. As to the method: FIG. 20. Western blot image showing the levels of p-ERK, ERK, p-P90RSK, P90RSK, p-LKB1, LKB1, p-AMPK, AMPK, p-Acetyl-CoA Carboxylase (p-ACC), Acetyl-CoA Carboxylase (ACC), p-mTOR, mTOR, p-p70S6K, p70S6K, p-S6RP, S6RP in primary human hepatocytes that are unstimulated (BL) or stimulated for 24 hours with either IL11, 0.5% BSA, or palmitate (saturated fatty acid) in the presence of X203, X209, or IgG (11E10) isotype control. IL11 (10 ng/ml), IgG/X203/X209 (2 μg/ml), palmitate (0.5 mM) conjugated in free BSA (0.5% BSA solution) in the ratio of 6:1.
Primary human hepatocytes (stimulated with IL-11, BSA or palmitate, or unstimulated) were treated with X203 (anti-IL-11 antagonist antibody) and X209 (anti-IL-11Rα antagonist antibody). […] Treatment with X203 or X209 essentially reverses the effect of palmitate stimulation on these markers to the levels observed in the unstimulated control.
In general terms: Immunoblotting shows a protein as a band on a membrane.

For test [5], the system named is C57Bl/6J mice. In words: Serum IL-6 levels of old mice (ELISA). Format: in vivo, mouse. The conditions noted are these: old (110 week-old) male and female mice; vs IgG isotype control. As to the method: FIG. 51. A neutralizing IL-11 antibody reduces the levels of IL-6 protein in the serum of old mice. Graphs showing the effects of treatment with anti-IL11 (X203) or IgG isotype control on serum IL-6 levels levels of old (110 week-old) male and female mice. Dotted lines indicate the mean serum IL-6 levels of 12 week-old control male (0.159 μg/ml) and female (0.236 μg/ml) mice. Data were analyzed by 2-way ANOVA.
IL-6 is strongly linked with ageing (Maggio et al. 2006, J Gerontol A Biol Sci Med Sci. 61(6): 575-584; Ershler and Keller 2000, Annual Review of Medicine 51: 245-70).
Male and female C57Bl/6J mice aged 46 weeks were purchased from the Jackson Laboratory. Mice were randomised on a 1:1 basis to receive either 40 mg/kg of X203 or an isotype control IgG antibody (11E10), every 3 weeks (IP), starting from 55 weeks of age. Mice were sacrificed at 110 weeks of age for blood and tissues collection. 12 weeks old male and female C57Bl/6J mice that were used as control were purchased from Invivos (Singapore).
The levels of IL6 in mouse serum were quantified using Mouse IL-6 Quantikine ELISA Kit (M6000B; R&D Systems).
In general terms: An ELISA detects its analyte on a solid surface through an enzyme-linked reagent.

[6] abbreviates: treatment from age 55 to 110 weeks.

B1: X203: mouse anti-mouse IL-11 IgG antagonist antibody; VH SEQ ID NO:22, VL SEQ ID NO:23 (antibody, V domains shown)
VH: EVQLQQSGPELVKPGASVKIPCKASGYTFTDYNMDWVKQSHGKSLEWIGDINPHNGGPIYNQKFTGKATLTVDKSSSTAYMELRSLTSEDTAVYYCARGELGHWYFDVWGTGTTVTVSS
VL: DIVLTQSPASLAVSLGQRATISCRASKSVSTSGYSYIHWYQQKPGQPPKLLIYLASNLDSGVPARFSGSGSGTDFTLNIHPVEEEDAATYYCQHSRDLPPTFGGGTKLEIK
Turning to B1, the “weight of gastrocnemius muscle as a proportion of body weight” value in the test with C57Bl/6J mice [1] was “greater”. Moreover, the “weight of soleus muscle as a proportion of body weight” value with C57Bl/6J mice [1] is on record as “greater”. In addition, the “reduction in creatinine levels relative to IgG control” value with C57Bl/6J mice [2] (female mice, baseline 12 week old female 0.77 mg/dl) is on record as 43%; with C57Bl/6J mice [2] (male mice, baseline 12 week old male 0.92 mg/dl), 60%. Moreover, the “reduction in BUN levels relative to IgG control” value in the test on C57Bl/6J mice [2] (female mice, baseline mean BUN of 12 week old female mice 31.8 mg/dl) turned out to be 42%; in the test on C57Bl/6J mice [2] (male mice, baseline mean BUN of 12 week old male mice 51.3 mg/dl), 79%. Further, the renal function result in the test with C57Bl/6J mice [2] (vs IgG control antibody) was “improved”. Moreover, the “reduction in serum triglyceride levels relative to IgG control” value in the test with C57Bl/6J mice [3] (female mice, baseline 12 week old female 37 mg/dl) is recorded as 47%; with C57Bl/6J mice [3] (male mice, baseline 12 week old male 54 mg/dl), 65%. Besides, the “reduction in serum cholesterol levels relative to IgG control” value in the test on C57Bl/6J mice [3] (female mice, baseline 12 week old female 90 mg/dl) was found to be 51%; in the test with C57Bl/6J mice [3] (male mice, baseline 12 week old male 149 mg/dl), 45%. Further, the “reduction in liver triglyceride levels relative to IgG control” value stood at 54% with C57Bl/6J mice [3] (female mice, baseline 12 week old female 130 mg/g) and 71% with C57Bl/6J mice [3] (male mice, baseline 12 week old male 165 mg/g). Also, in the test with C57Bl/6J mice [3] (setting [6]), the “aging-associated hypertriglyceridemia, steatosis (liver fat accumulation) and hypercholesterolemia” value is reported as “reduce”. Besides, the “levels of circulating β-hydroxybutyrate” value in the test with C57Bl/6J mice [3] (setting [6]) is “increase”. Besides, the “levels of p-AMPK and p-ACC” value in test [4] is recorded as “increase”. Besides, the “levels of phosphorylated markers p-ERK, p-p90RSK, p-LKB1, p-mTOR, p-p70S6K and p-S6RP” value in test [4] was “reduces”. For the same molecule, in the test with C57Bl/6J mice [5], the “levels of IL-6 protein in the serum” value is recorded as “significantly reduces”.

The record behind these values is patent US20230399393A1, “METHODS TO EXTEND HEALTH-SPAN AND TREAT AGE-RELATED DISEASES” (National University of Singapore, priority 2020, published 2023).
